Test [1] concerns the target T1, BSA (Bos taurus, UniProt P02769).
T1 construct: coated on the ELISA plate as negative control antigen; also called bovine serum albumin
The test can be described thus: antigen ELISA: antigen coated at 10 ug/ml, HRP anti-mouse IgG [panel B]. As to the method: For this experiment, sCEA, CHIM, monkey CEA, CEA-v and BSA were coated in 96-well plates at a high concentration of 10 μg/ml overnight at 4° C. […] The HRP-linked anti-mouse IgG antibody (Cat. No. 7076S, Cell Signaling Technology, USA) and substrate (Cat. No. 00-4201-56, eBioscience, USA) were used for development, and absorbance signal at the wavelength of 450 nm was measured using a plate reader (SpectraMax Paradigm, Molecular Devices, USA).
On the technique in general: An ELISA detects its analyte on a solid surface through an enzyme-linked reagent.

The target of test [2] is T2, full-length human CEA on cells (human, UniProt P06731 35-685).
T2 sequence: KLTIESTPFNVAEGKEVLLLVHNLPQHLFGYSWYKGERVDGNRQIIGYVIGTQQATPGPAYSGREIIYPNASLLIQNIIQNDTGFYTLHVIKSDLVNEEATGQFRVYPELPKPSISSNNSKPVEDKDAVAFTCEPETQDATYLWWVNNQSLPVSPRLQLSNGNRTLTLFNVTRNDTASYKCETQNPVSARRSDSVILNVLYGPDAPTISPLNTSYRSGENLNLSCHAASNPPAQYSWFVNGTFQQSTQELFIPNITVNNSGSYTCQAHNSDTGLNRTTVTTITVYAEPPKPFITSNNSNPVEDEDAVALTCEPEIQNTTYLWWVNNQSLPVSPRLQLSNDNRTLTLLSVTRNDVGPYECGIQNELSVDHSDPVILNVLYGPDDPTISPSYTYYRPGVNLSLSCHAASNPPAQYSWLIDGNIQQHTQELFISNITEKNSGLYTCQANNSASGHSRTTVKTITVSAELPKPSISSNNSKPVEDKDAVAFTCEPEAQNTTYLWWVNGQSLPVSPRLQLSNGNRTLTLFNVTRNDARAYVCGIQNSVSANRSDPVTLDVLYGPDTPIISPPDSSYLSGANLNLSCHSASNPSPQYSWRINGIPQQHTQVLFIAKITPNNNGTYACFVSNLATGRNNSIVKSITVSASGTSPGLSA
The test can be described thus: cell-based or functional assay.

Test [3] has as its target T2, full-length human CEA on cells. Description: flow cytometry on LOVO cells, Alexa Fluor 647 anti-human IgG Fc. As to the method:
For this experiment, anti-human IgG (Fc) antibody was immobilized on an activated CM5 biosensor chip (Cat. No. BR100839, GE Life Sciences). Anti-CEA antibodies were flowed over the chip surface and captured by anti-human Fab antibody. […] For flow cytometry, CEA-expressing cells (10⁵ cells/well) were incubated with various concentrations of purified affinity-matured antibodies, followed by binding with Alexa Fluro-647-labeled anti-hu IgG Fc antibody (Cat. No. 409320, BioLegend, USA). Cell fluorescence was quantified using a flow cytometer (Guava easyCyte™ 8HT, Merck-Millipore, USA). The equilibrium dissociation constant (KD) was calculated as the ratio koff/kₒₙ.
Background: Flow cytometry measures light scatter and fluorescence of single cells or particles in a stream.

For test [4], the target named is T3, CEACAM8 on transfected HEK293 cells (human, UniProt P31997 35-320).
T3 sequence: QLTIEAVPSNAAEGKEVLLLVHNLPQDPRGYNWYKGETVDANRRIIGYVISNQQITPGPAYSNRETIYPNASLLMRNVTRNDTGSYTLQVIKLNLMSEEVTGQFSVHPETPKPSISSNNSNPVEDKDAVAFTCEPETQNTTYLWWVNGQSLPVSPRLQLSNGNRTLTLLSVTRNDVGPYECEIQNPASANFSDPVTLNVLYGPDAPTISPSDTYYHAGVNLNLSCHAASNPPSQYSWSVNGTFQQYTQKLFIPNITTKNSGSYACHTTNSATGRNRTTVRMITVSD
Description: flow cytometry on transiently transfected HEK293 cells, Alexa Fluor 647 anti-human IgG Fc [panel B]. Here is the method: (§1) Cell fluorescence was quantified using a flow cytometer (Guava easyCyte™ 8HT, Merck-Millipore, USA). For antigen ELISA, CEACAM1(SEQ ID NO:64) (Cat. No. 10822-H08H, Sino Biological, China), CHIM (SEQ ID NO: 63), CEA (SEQ ID NO:55) or CEACAM6 (SEQ ID NO:57) were coated in 96-well plates at a concentration of 10 μg/ml overnight at 4° C. The HRP-linked anti-human Fc (Fc specific) IgG antibody (Cat. No. A0170, Sigma, USA) and substrate (Cat. No. 00-4201-56, eBioscience, USA) were used for development, and absorbance signal at the wavelength of 450 nm was measured using a plate reader (SpectraMax Paradigm, Molecular Devices, USA).

In test [5] the target is T4, CEACAM7 on transfected HEK293 cells (human, UniProt Q14002 36-242).
T4 sequence: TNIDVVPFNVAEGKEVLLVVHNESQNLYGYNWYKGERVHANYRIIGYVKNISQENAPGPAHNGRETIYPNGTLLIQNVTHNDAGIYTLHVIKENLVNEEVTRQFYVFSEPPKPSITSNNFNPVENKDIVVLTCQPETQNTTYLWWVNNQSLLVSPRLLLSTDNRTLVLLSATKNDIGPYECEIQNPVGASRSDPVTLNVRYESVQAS
The description is as above. As to the method: as §1

For test [6], the target named is T2, full-length human CEA on cells. The test can be described thus: flow cytometry on MKN45 cells, Alexa Fluor 647 anti-human IgG Fc. Here is the method: For flow cytometry, CEA-expressing MKN45 cells (10⁵ cells/well) were incubated with various concentrations of purified affinity-matured antibodies, followed by binding with Alexa Fluro-647-labeled anti-hu IgG Fc antibody (Cat. No. 409320, BioLegend, USA). Cell fluorescence was quantified using a flow cytometer (Guava easyCyte™ 8HT, Merck-Millipore, USA).

T1 sequence (P02769 25-607 limits assumed): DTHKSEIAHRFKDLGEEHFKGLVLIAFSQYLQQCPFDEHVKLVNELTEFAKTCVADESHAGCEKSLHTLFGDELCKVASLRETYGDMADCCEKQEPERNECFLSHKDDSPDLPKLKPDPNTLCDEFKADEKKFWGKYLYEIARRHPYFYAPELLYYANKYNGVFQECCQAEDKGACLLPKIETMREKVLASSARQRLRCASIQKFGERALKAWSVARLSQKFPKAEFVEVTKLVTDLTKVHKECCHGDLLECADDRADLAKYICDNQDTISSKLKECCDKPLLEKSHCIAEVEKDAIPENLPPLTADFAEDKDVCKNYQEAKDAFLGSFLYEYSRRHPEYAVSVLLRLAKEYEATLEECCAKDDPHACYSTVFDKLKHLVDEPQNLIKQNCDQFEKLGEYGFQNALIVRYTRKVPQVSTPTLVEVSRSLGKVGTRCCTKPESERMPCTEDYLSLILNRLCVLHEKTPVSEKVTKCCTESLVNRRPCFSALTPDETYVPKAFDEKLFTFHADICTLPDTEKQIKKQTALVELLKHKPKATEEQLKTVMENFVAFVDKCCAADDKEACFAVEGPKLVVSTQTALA

B1: BGA13 (antibody, V domains shown)
VH: QVQLQQSGAELAKSGASVKMSCKASGYIFTSYWLHWVKQRPGQGLEWIGYINPNTGYTNYSQKFKDKATLTADKSSSTAYMQLSSLTSEDSAVYYCAREYGNYNYPLDYWGQGTSVTVSS
VL: DIQMTQSPASLSASVGETVTITCRASENIYGYLAWYQQKQGKSPQLLVFNAKNLVEGVPSRFSGSGSGTQFSLKINSLQPEDFGSYYCQHHYGTPYTFGGGTKLEIK
notes: murine monoclonal IgG purified from hybridoma supernatant; also called murine anti-CEA antibody BGA13
In the case of B1, in test [1], the binding result was “no binding”.

B2: BGA113 (antibody, human IgG1, V domains shown)
VH: QVQLVQSGAEVKKPGASVKVSCKASGYIFTSYYLHWVRQAPGQGLEWIGYINPQTGYTSYAQKFQGRVTMTRDTSTSTVYMELSSLRSEDTAVYYCAREYGNYNYPLDYWGQGTLVTVSS
VL: DIQMTQSPSSLSASVGDRVTITCRASENQYGYLAWYQQKPGKVPKLLIYNYKNLVEGVPSRFSGSGSGTDFTLTISSLQPEDVATYYCQHHLGTPYTFGQGTKVEIK
notes: W33Y (VH), T51Y (VL) on BGA131F-ph-M; wild-type human IgG1 format
The EC50 (read off the curve) is the concentration at which the effect is half-maximal. Read a low EC50 (read off the curve) as greater potency. For the molecule B2, in test [2], the “ADCC (LDH release), EC50” value was approximately 0.0067 µg/mL. Moreover, in test [3], the “EC50 (read off the curve)” value is approximately 1 nM.

B3: BGA131F (antibody, human IgG1, V domains shown)
VH: QVQLVQSGAEVKKPGASVKVSCKASGYIFTSYWLHWVRQAPGQGLEWIGYINPQTGYTSYAQKFQGRVTMTRDTSTSTVYMELSSLRSEDTAVYYCAREYGNYNYPLDYWGQGTLVTVSS
VL: DIQMTQSPSSLSASVGDRVTITCRASENIYGYLAWYQQKPGKVPKLLIYNAKNLVEGVPSRFSGSGSGTDFTLTISSLQPEDVATYYCQHHYGTPYTFGQGTKVEIK
notes: BGA131 with N54Q, N59S, S61A in VH; human IgG1 / kappa format
As for B3, the “EC50 (read off the curve)” value in test [3] was approximately 6 nM.

B4: BGA113K (antibody, human IgG1, V domains shown)
VH: QVQLVQSGAEVKKPGASVKVSCKASGYIFTSYYLHWVRQAPGQGLEWIGYINPQTGKTSYAQKFQGRVTMTRDTSTSTVYMELSSLRSEDTAVYYCAREYGNYNYPLDYWGQGTLVTVSS
VL: DIQMTQSPSSLSASVGDRVTITCRASENQYGYLAWYQQKPGKVPKLLIYNYKNLVEGVPSRFSGSGSGTDFTLTISSLQPEDVATYYCQHHLGTPYTFGQGTKVEIK
notes: BGA113 with Y57K in the heavy chain; generated in human IgG1 format; also called BGA113 variant Y57K; Y57K
Regarding B4, the binding result in test [4] and in test [5] was “no binding (tested: 2 ug/ml (from paragraph 184; not on the sheet))” each time. Further, in test [6], the “EC50 (read off the curve)” value was approximately 0.5 µg/mL.

B5: BGA131F-ph-M (antibody, V domains shown)
VH: QVQLVQSGAEVKKPGASVKVSCKASGYIFTSYWLHWVRQAPGQGLEWIGYINPQTGYTSYAQKFQGRVTMTRDTSTSTVYMELSSLRSEDTAVYYCAREYGNYNYPLDYWGQGTLVTVSS
VL: DIQMTQSPSSLSASVGDRVTITCRASENQYGYLAWYQQKPGKVPKLLIYNTKNLVEGVPSRFSGSGSGTDFTLTISSLQPEDVATYYCQHHLGTPYTFGQGTKVEIK
notes: BGA13-1F heavy chain with a selected kappa light chain, IgG; also called BGA1311F-ph-M
On to B5, for which the “EC50 (read off the curve)” value in test [3] is approximately 5 nM.

The values are drawn from patent publication US20240190990A1 (BEIGENE SWITZERLAND, published 2024).
